Values of other authors in paper PMC2562372.

Assays:
NRP1 (Homo sapiens) = NRP1 (Homo sapiens) (UniProt O14786)
VEGFR1 (Homo sapiens) = VEGFR1 (Homo sapiens) (UniProt P17948)
VEGFR2 (Homo sapiens) = VEGFR2 (Homo sapiens) (UniProt P35968)
Sequence of UniProt P35968 (P35968 20-1356): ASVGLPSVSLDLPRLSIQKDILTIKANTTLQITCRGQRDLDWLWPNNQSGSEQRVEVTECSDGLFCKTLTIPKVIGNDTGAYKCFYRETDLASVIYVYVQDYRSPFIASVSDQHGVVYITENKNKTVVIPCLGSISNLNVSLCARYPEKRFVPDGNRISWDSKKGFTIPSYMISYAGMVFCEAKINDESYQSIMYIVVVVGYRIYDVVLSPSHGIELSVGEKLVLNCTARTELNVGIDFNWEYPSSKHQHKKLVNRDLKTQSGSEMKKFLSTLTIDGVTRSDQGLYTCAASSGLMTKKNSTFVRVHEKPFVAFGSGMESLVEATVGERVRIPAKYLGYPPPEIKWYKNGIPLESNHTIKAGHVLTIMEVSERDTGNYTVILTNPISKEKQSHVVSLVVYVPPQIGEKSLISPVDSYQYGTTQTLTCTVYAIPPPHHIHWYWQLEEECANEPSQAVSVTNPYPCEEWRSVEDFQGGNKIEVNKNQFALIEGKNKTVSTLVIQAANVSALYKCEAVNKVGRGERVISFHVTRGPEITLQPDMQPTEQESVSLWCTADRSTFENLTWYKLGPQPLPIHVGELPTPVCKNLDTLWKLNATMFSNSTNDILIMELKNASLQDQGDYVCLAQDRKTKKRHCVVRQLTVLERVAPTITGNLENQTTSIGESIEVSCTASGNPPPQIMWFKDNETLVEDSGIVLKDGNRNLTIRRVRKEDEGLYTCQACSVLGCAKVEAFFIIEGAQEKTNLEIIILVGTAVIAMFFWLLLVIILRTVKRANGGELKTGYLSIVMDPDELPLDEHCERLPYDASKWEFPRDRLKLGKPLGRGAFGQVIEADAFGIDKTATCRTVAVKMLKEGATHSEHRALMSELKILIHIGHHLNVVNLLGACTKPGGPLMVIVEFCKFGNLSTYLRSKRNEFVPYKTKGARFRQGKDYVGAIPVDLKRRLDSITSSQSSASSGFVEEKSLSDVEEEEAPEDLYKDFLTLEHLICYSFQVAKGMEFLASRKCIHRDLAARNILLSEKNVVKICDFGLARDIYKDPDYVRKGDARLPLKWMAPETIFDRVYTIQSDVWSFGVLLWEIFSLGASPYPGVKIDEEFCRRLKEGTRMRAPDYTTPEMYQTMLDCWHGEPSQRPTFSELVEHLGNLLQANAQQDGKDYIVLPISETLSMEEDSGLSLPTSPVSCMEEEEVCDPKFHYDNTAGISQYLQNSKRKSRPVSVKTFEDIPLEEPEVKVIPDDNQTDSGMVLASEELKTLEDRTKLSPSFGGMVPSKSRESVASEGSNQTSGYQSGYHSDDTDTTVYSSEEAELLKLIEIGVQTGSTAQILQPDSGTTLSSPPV

Sequence of UniProt P17948 (P17948 27-1338): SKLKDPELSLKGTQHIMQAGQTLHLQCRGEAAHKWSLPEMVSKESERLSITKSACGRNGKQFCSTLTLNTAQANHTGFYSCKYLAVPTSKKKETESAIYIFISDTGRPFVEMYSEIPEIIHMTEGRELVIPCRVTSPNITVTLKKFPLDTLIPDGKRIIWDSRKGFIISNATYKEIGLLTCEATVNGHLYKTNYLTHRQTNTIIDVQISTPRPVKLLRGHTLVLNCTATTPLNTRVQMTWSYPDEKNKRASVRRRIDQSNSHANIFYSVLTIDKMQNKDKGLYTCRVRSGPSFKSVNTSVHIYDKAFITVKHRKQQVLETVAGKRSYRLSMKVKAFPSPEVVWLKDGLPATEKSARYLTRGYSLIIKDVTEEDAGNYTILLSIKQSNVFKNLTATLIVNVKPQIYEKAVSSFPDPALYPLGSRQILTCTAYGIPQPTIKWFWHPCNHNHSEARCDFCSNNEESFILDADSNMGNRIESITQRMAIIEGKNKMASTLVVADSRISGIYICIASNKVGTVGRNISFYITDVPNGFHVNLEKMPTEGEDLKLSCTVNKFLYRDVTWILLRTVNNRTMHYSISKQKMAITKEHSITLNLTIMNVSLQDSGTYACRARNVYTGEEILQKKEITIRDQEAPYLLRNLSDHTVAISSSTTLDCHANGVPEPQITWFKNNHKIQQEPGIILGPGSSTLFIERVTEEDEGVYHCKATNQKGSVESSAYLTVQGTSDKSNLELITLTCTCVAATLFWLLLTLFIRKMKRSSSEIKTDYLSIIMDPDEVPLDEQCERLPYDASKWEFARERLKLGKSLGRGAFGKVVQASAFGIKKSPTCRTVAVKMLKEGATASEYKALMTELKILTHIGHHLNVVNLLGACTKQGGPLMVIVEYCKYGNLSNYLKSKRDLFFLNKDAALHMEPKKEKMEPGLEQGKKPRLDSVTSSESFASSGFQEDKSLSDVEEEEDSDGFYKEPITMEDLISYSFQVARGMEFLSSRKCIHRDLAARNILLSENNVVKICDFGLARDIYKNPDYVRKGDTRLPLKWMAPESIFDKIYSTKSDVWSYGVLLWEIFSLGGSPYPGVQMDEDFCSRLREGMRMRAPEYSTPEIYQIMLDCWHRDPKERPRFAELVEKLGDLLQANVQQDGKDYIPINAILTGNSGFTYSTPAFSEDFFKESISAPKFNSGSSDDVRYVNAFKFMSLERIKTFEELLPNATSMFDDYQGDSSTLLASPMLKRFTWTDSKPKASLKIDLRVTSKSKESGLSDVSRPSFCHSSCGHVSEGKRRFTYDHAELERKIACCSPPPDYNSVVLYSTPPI
Sequence of UniProt O14786 (O14786 22-923): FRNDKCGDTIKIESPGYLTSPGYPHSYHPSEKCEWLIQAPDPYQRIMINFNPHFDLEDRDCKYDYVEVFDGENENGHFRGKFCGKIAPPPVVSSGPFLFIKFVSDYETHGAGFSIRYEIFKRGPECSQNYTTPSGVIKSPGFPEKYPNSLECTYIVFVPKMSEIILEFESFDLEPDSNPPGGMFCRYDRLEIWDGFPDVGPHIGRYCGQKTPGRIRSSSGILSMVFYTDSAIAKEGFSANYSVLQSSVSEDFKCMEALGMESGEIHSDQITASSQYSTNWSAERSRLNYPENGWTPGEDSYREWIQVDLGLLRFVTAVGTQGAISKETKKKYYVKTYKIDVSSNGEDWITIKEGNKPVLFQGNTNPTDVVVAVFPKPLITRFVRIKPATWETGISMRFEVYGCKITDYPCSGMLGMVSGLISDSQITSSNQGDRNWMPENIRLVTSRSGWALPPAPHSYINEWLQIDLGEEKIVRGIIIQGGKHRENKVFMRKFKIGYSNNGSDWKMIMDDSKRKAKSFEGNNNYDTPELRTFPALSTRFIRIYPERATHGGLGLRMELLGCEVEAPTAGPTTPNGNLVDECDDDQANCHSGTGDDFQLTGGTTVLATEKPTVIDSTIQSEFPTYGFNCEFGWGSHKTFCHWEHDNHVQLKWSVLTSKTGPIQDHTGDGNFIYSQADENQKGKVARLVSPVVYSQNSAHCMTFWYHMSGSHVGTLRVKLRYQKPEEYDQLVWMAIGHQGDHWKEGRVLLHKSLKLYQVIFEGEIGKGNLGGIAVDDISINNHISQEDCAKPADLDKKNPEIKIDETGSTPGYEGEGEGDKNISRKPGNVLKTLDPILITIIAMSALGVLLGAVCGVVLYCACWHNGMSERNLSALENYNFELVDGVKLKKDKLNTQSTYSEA

Substance	Kd (NRP1 (Homo sapiens)) [nM]	Kd (VEGFR1 (Homo sapiens)) [nM]	Kd (VEGFR2 (Homo sapiens)) [nM]
VEGF165 (from UniProt P15692)	0.312	–	–
VEGF (from UniProt P15692)	–	0.033	0.1
